Measured values as given in patent KR20130140557A (dated 2013).

Columns and labels:
[1] = target: T1, IL-6R-Fc 항원 (IL-6R full domain 단백질) (human, UniProt P08887 20-365); assay: ELISA (summary table; same value as the 3rd table)
T1 construct: domain: IL-6R full domain; Expressed transiently in HEK293E and purified from the supernatant; also called IL-6R 항원; not shown: Fc part from expression vector pYK 604
T1 sequence (looked up): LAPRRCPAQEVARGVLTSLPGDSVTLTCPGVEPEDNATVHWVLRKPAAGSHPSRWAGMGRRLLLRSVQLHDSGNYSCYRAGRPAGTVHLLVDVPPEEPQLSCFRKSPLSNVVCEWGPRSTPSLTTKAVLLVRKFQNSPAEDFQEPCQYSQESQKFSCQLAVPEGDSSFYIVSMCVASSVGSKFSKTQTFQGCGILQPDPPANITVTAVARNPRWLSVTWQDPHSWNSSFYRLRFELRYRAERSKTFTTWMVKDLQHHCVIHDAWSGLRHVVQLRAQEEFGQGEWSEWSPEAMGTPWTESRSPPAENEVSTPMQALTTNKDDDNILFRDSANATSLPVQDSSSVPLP

[2] = target: T1, IL-6R-Fc 항원 (IL-6R full domain 단백질); assay: ELISA titration on coated IL-6R, anti-Fab-HRP
[3] = target: T1, IL-6R-Fc 항원 (IL-6R full domain 단백질); assay: ELISA, coated IL-6R 100 ng/well, anti-Fab-HRP
Fc = assay: mono phage ELISA, Fc coated 100 ng/well, anti-M13-HRP
a-Myc = assay: mono phage ELISA, a-Myc coated 100 ng/well, anti-M13-HRP
[4] = target: T1, IL-6R-Fc 항원 (IL-6R full domain 단백질); assay: mono phage ELISA, antigen coated 100 ng/well, anti-M13-HRP
[5] = target: T1, IL-6R-Fc 항원 (IL-6R full domain 단백질); assay: mono phage ELISA, ratio of OD on IL-6R full to OD on a-myc

B1: 항 IL-6R 단클론 항체 B10 (IgG) (antibody, V domains shown)
VH: QVQLVESGGGLVQPGGSLRLSCAASGFIFDDYAMFWVRQVPGKGLEWVAGINWNGNGIGYGDSVRGRFIISRDNARNSLDLQMNSLRAEDTAVYYCARPSLYGGNSEFDLWGQGTLVTVSS
VL: SQLVLTQPPSVSGAPGQTVTISCTGPTIGAGYDVHWYQQLPGAAPKLLIYGNLNRPSGVPDRFSGSKSGTSASLAITDLQAEDEADYYCHTYDSSLSGSWVFGGGTKLTVL
notes: Phage clone converted to whole IgG
- Kd [1]: 4.3 nM
- Kd [2]: 4.3 nM
- OD 490 nm at 0.02441 nM antibody [3]: 0.468 OD490
- OD 490 nm at 0.04883 nM antibody [3]: 0.451 OD490
- OD 490 nm at 0.09766 nM antibody [3]: 0.462 OD490
- OD 490 nm at 0.19531 nM antibody [3]: 0.429 OD490
- OD 490 nm at 0.39063 nM antibody [3]: 0.476 OD490
- OD 490 nm at 0.78125 nM antibody [3]: 0.5 OD490
- OD 490 nm at 1.5625 nM antibody [3]: 0.607 OD490
- OD 490 nm at 3.125 nM antibody [3]: 0.761 OD490
- OD 490 nm at 6.25 nM antibody [3]: 1.04 OD490
- OD 490 nm at 12.5 nM antibody [3]: 1.39 OD490
- OD 490 nm at 25 nM antibody [3]: 1.78 OD490
- OD 490 nm at 50 nM antibody [3]: 2.09 OD490

B2: 항 IL-6R 단클론 항체 D2 (IgG) (antibody, V domains shown)
VH: QVQLVESGAEVKKPGSSVKVSCKGSGDTFPNYAINWVRQAPGQGPEWMGRIIPMLGTSDYAEKFQGRVTITADKSTNTAYMGLNSLRSEDTAVYYCVKGPRYYGTDSYYLEKWGQGTMVTVSS
VL: SQLVLTQPPSVSGAPGQTVTISCTGPTIGAGYDVHWYQQLPGAAPKLLIYGNLNRPSGVPDRFSGSKSGTSASLAITDLQAEDEADYYCHTYDSSLSGSWVFGGGTKLTVL
notes: as for B1
- Kd [1]: 7.5 nM
- Kd [2]: 7.5 nM
- OD 490 nm at 0.02441 nM antibody [3]: 0.449 OD490
- OD 490 nm at 0.04883 nM antibody [3]: 0.451 OD490
- OD 490 nm at 0.09766 nM antibody [3]: 0.45 OD490
- OD 490 nm at 0.19531 nM antibody [3]: 0.469 OD490
- OD 490 nm at 0.39063 nM antibody [3]: 0.473 OD490
- OD 490 nm at 0.78125 nM antibody [3]: 0.479 OD490
- OD 490 nm at 1.5625 nM antibody [3]: 0.584 OD490
- OD 490 nm at 3.125 nM antibody [3]: 0.719 OD490
- OD 490 nm at 6.25 nM antibody [3]: 0.981 OD490
- OD 490 nm at 12.5 nM antibody [3]: 1.47 OD490
- OD 490 nm at 25 nM antibody [3]: 1.94 OD490
- OD 490 nm at 50 nM antibody [3]: 2.38 OD490

B3: 항 IL-6R 단클론 항체 F2 (IgG) (antibody, V domains shown)
VH: QVQLVESGAEVKKPGASVKVSCKASGYTFTNYYMHWVRQAPGQGLEWMGIINPSGGNTGYAQKFQGRVTMTRDMSTSTAYMELSSLRSEDTAVYYCARGLPWGENGLDVWGQGTTVTVSS
VL: SQLVLTQPSSVSGAPGQTVTISCTGSSSNIGAGYDVHWYQQLPGTAPKVLIYGDSDRPSGVPDRFSGSKSATSASLAITGLQAEDEADYYCQSYDSSLSAYVFGTGTKVTVL
notes: as for B1
- Kd [1]: 0.35 nM
- Kd [2]: 0.35 nM
- OD 490 nm at 0.02441 nM antibody [3]: 0.535 OD490
- OD 490 nm at 0.04883 nM antibody [3]: 0.584 OD490
- OD 490 nm at 0.09766 nM antibody [3]: 0.743 OD490
- OD 490 nm at 0.19531 nM antibody [3]: 1.01 OD490
- OD 490 nm at 0.39063 nM antibody [3]: 1.41 OD490
- OD 490 nm at 0.78125 nM antibody [3]: 1.9 OD490
- OD 490 nm at 1.5625 nM antibody [3]: 2.43 OD490
- OD 490 nm at 3.125 nM antibody [3]: 2.72 OD490
- OD 490 nm at 6.25 nM antibody [3]: 2.71 OD490
- OD 490 nm at 12.5 nM antibody [3]: 2.92 OD490
- OD 490 nm at 25 nM antibody [3]: 2.89 OD490
- OD 490 nm at 50 nM antibody [3]: 2.99 OD490

B4: 모노 파아지 클론 F2 (scFv on phage) (scFv)
chain: DVHSQVQLVESGAEVKKPGASVKVSCKASGYTFTNYYMHWVRQAPGQGLEWMGIINPSGGNTGYAQKFQGRVTMTRDMSTSTAYMELSSLRSEDTAVYYCARGLPWGENGLDVWGQGTTVTVSSDVHSQLVLTQPSSVSGAPGQTVTISCTGSSSNIGAGYDVHWYQQLPGTAPKVLIYGDSDRPSGVPDRFSGSKSATSASLAITGLQAEDEADYYCQSYDSSLSAYVFGTGTKVTVL
- OD 490 nm (Fc) (Fc): 0.0405 OD490
- OD 490 nm (a-myc) (a-Myc): 0.287 OD490
- OD 490 nm (IL-6R full) [4]: 2.86 OD490
- Ratio (IL-6R full / a-myc) [5]: 9.96

B5: 모노 파아지 클론 D2 (scFv on phage) (scFv)
chain: DVHSQVQLVESGAEVKKPGSSVKVSCKGSGDTFPNYAINWVRQAPGQGPEWMGRIIPMLGTSDYAEKFQGRVTITADKSTNTAYMGLNSLRSEDTAVYYCVKGPRYYGTDSYYLEKWGQGTMVTVSSDVHSQLVLTQPPSVSGAPGQTVTISCTGPTIGAGYDVHWYQQLPGAAPKLLIYGNLNRPSGVPDRFSGSKSGTSASLAITDLQAEDEADYYCHTYDSSLSGSWVFGGGTKLTVL
- OD 490 nm (Fc) (Fc): 0.0415 OD490
- OD 490 nm (a-myc) (a-Myc): 0.303 OD490
- OD 490 nm (IL-6R full) [4]: 2.34 OD490
- Ratio (IL-6R full / a-myc) [5]: 7.71

B6: 항 IL-6R 단클론 항체 A7 (IgG) (antibody, V domains shown)
VH: QMQLVESGGGLVQPGTSLRLSCAASGFKFEDYAMHWVRQAPGKGLEWVSGVSWNSGTIAYVDSVKGRFTISRDNAKNSLYLQMNSLRAEDTAVYYCARDFTYFYESSGYYAFDLWGQGTMVTVSS
VL: SQLVLTQPPSVSGAPGQRVTISCTGTNSNIGAGYDVHWYQQVPGTTPKLLIYGNTNRPSGVPDRFSGSKSGTSASLAITGLQAEDGGDYYCQSFDSSLTGSVFGTGTKVTVL
notes: as for B1
- Kd [1]: 2.3 nM
- Kd [2]: 2.3 nM
- OD 490 nm at 0.02441 nM antibody [3]: 0.514 OD490
- OD 490 nm at 0.04883 nM antibody [3]: 0.498 OD490
- OD 490 nm at 0.09766 nM antibody [3]: 0.497 OD490
- OD 490 nm at 0.19531 nM antibody [3]: 0.546 OD490
- OD 490 nm at 0.39063 nM antibody [3]: 0.618 OD490
- OD 490 nm at 0.78125 nM antibody [3]: 0.782 OD490
- OD 490 nm at 1.5625 nM antibody [3]: 1.17 OD490
- OD 490 nm at 3.125 nM antibody [3]: 1.64 OD490
- OD 490 nm at 6.25 nM antibody [3]: 2.13 OD490
- OD 490 nm at 12.5 nM antibody [3]: 2.58 OD490
- OD 490 nm at 25 nM antibody [3]: 2.84 OD490
- OD 490 nm at 50 nM antibody [3]: 3.1 OD490

B7: 모노 파아지 클론 A7 (scFv on phage) (scFv)
chain: DVHSQMQLVESGGGLVQPGTSLRLSCAASGFKFEDYAMHWVRQAPGKGLEWVSGVSWNSGTIAYVDSVKGRFTISRDNAKNSLYLQMNSLRAEDTAVYYCARDFTYFYESSGYYAFDLWGQGTMVTVSSDVHSQLVLTQPPSVSGAPGQRVTISCTGTNSNIGAGYDVHWYQQVPGTTPKLLIYGNTNRPSGVPDRFSGSKSGTSASLAITGLQAEDGGDYYCQSFDSSLTGSVFGTGTKVTVL
- OD 490 nm (Fc) (Fc): 0.0421 OD490
- OD 490 nm (a-myc) (a-Myc): 0.0797 OD490
- OD 490 nm (IL-6R full) [4]: 2.48 OD490
- Ratio (IL-6R full / a-myc) [5]: 31.1

B8: 모노 파아지 클론 B10 (scFv on phage) (scFv)
chain: DVHSQVQLVESGGGLVQPGGSLRLSCAASGFIFDDYAMFWVRQVPGKGLEWVAGINWNGNGIGYGDSVRGRFIISRDNARNSLDLQMNSLRAEDTAVYYCARPSLYGGNSEFDLWGQGTLVTVSSDVHSQLVLTQPPSVSGAPGQTVTISCTGPTIGAGYDVHWYQQLPGAAPKLLIYGNLNRPSGVPDRFSGSKSGTSASLAITDLQAEDEADYYCHTYDSSLSGSWVFGGGTKLTVL
- OD 490 nm (Fc) (Fc): 0.0406 OD490
- OD 490 nm (a-myc) (a-Myc): 0.113 OD490
- OD 490 nm (IL-6R full) [4]: 2.1 OD490
- Ratio (IL-6R full / a-myc) [5]: 18.6
